System: Escherichia coli TOP10
Assay: shrunken log2 fold change of peptide-encoding DNA abundance (4.5 h post-induction vs induction); higher = less antimicrobial activity (less host growth inhibition)
Conditions: time post-induction: 4.5 h; library: site-saturation at positions 5, 18, 19, 20
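Also: peptides expressed intracellularly from a pBAD plasmid library in pooled LB shake-flask culture, induced with 0.3% L-arabinose, DNA abundance read by NGS, three biological replicates, DESeq2 with apeglm shrinkage.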

Row | Sequence | shrunken log2 fold change
1 | RRIRVRPPRLPRPRPRPRGPPRP | 0.946
2 | RRIRMRPPRLPRPRPRPTHKPRP | 0.275
3 | RRIRWRPPRLPRPRPRPYIFPRP | -0.242
4 | RRIRQRPPRLPRPRPRPNIGPRP | -0.0212
5 | RRIRSRPPRLPRPRPRPESVPRP | 0.17
6 | RRIRIRPPRLPRPRPRPNTSPRP | -0.639
7 | RRIRCRPPRLPRPRPRPTHFPRP | 0.526
8 | RRIRSRPPRLPRPRPRPHAGPRP | 0.428
9 | RRIRPRPPRLPRPRPRPSTRPRP | -0.0318
10 | RRIRERPPRLPRPRPRPGQCPRP | 0.0236
11 | RRIRWRPPRLPRPRPRPISAPRP | -0.0163
12 | RRIRPRPPRLPRPRPRPLFCPRP | -0.0561
13 | RRIRWRPPRLPRPRPRPPSSPRP | 0.778
14 | RRIRMRPPRLPRPRPRPRPIPRP | 0.754
15 | RRIRNRPPRLPRPRPRPMYEPRP | 0.0112
16 | RRIRWRPPRLPRPRPRPIDHPRP | -0.166
17 | RRIRIRPPRLPRPRPRPTPKPRP | -0.0169
18 | RRIRGRPPRLPRPRPRPIVSPRP | 0.158
19 | RRIRKRPPRLPRPRPRPMHLPRP | -0.0647
20 | RRIRKRPPRLPRPRPRPKMCPRP | -0.0224
21 | RRIRNRPPRLPRPRPRPKNDPRP | -0.0949
22 | RRIRPRPPRLPRPRPRPAGYPRP | -0.189
23 | RRIRDRPPRLPRPRPRPHHRPRP | -0.277
24 | RRIRMRPPRLPRPRPRPGGLPRP | 0.818
25 | RRIRPRPPRLPRPRPRPYWEPRP | -0.0429

Row | Sequence | shrunken log2 fold change
26 | RRIRRRPPRLPRPRPRPLGPPRP | 0.304
27 | RRIRARPPRLPRPRPRPYKQPRP | -0.295
28 | RRIRVRPPRLPRPRPRPHFKPRP | -0.0898
29 | RRIRIRPPRLPRPRPRPPHIPRP | -0.542
30 | RRIRERPPRLPRPRPRPKVPPRP | -0.015
31 | RRIRIRPPRLPRPRPRPHYNPRP | -1.03
32 | RRIRTRPPRLPRPRPRPFGFPRP | -0.473
33 | RRIRVRPPRLPRPRPRPAVKPRP | 0.318
34 | RRIRFRPPRLPRPRPRPTFQPRP | -0.156
35 | RRIRHRPPRLPRPRPRPEQTPRP | -0.01
36 | RRIRGRPPRLPRPRPRPSQPPRP | 0.138
37 | RRIRNRPPRLPRPRPRPEYKPRP | -0.203
38 | RRIRWRPPRLPRPRPRPPPPPRP | 0.958
39 | RRIRSRPPRLPRPRPRPKFQPRP | 0.146
40 | RRIRIRPPRLPRPRPRPNSRPRP | -0.0636
41 | RRIRSRPPRLPRPRPRPPHAPRP | 0.629
42 | RRIRNRPPRLPRPRPRPNNIPRP | -0.551
43 | RRIRYRPPRLPRPRPRPEFVPRP | -0.327
44 | RRIRARPPRLPRPRPRPLHKPRP | 0.408
45 | RRIRMRPPRLPRPRPRPREFPRP | 0.0273
46 | RRIRGRPPRLPRPRPRPQSLPRP | 0.251
47 | RRIRGRPPRLPRPRPRPTRIPRP | 0.901
48 | RRIRMRPPRLPRPRPRPIHPPRP | -0.0207
49 | RRIRYRPPRLPRPRPRPYHIPRP | -0.23
50 | RRIRWRPPRLPRPRPRPPLNPRP | 0.188

Row | Sequence | shrunken log2 fold change
51 | RRIRHRPPRLPRPRPRPFNNPRP | -0.159
52 | RRIRYRPPRLPRPRPRPGLLPRP | 0.0178
53 | RRIRARPPRLPRPRPRPTLTPRP | 1.08
54 | RRIRRRPPRLPRPRPRPTWPPRP | 0.647
55 | RRIRTRPPRLPRPRPRPYEEPRP | -0.573
56 | RRIRRRPPRLPRPRPRPQNWPRP | 0.199
57 | RRIRIRPPRLPRPRPRPMETPRP | -0.0335
58 | RRIRHRPPRLPRPRPRPAWTPRP | -0.136
59 | RRIRARPPRLPRPRPRPFPHPRP | 0.146
60 | RRIRTRPPRLPRPRPRPWIHPRP | -0.636
61 | RRIRMRPPRLPRPRPRPWYSPRP | -0.427
62 | RRIRDRPPRLPRPRPRPWWAPRP | 0.61
63 | RRIRKRPPRLPRPRPRPYEGPRP | -0.0017
64 | RRIRMRPPRLPRPRPRPMKSPRP | 0.0897
65 | RRIRMRPPRLPRPRPRPFSAPRP | 0.138
66 | RRIRIRPPRLPRPRPRPTRLPRP | 0.0583
67 | RRIRIRPPRLPRPRPRPGRDPRP | 0.0442
68 | RRIRPRPPRLPRPRPRPFYGPRP | -0.142
69 | RRIRYRPPRLPRPRPRPMCVPRP | -0.227
70 | RRIRPRPPRLPRPRPRPGVIPRP | -0.321
71 | RRIRFRPPRLPRPRPRPIVQPRP | 0.00873
72 | RRIRQRPPRLPRPRPRPHLSPRP | -0.00594
73 | RRIRFRPPRLPRPRPRPRNWPRP | 0.19
74 | RRIRTRPPRLPRPRPRPTYRPRP | -0.0768
75 | RRIRHRPPRLPRPRPRPKAGPRP | -0.115

Row | Sequence | shrunken log2 fold change
76 | RRIRCRPPRLPRPRPRPNNRPRP | -0.738
77 | RRIRYRPPRLPRPRPRPDCEPRP | 0.0295
78 | RRIRGRPPRLPRPRPRPMAQPRP | 1.07
79 | RRIRCRPPRLPRPRPRPETQPRP | 0.0409
80 | RRIRMRPPRLPRPRPRPDEEPRP | 2.97
81 | RRIRQRPPRLPRPRPRPQFFPRP | -0.122
82 | RRIRWRPPRLPRPRPRPLQFPRP | 0.0403
83 | RRIRLRPPRLPRPRPRPTDTPRP | -0.304
84 | RRIRGRPPRLPRPRPRPARQPRP | 0.654
85 | RRIRHRPPRLPRPRPRPFDQPRP | -0.0783
86 | RRIRARPPRLPRPRPRPTGMPRP | 0.52
87 | RRIRIRPPRLPRPRPRPCLNPRP | -0.0496
88 | RRIRKRPPRLPRPRPRPDQYPRP | 0.0833
89 | RRIRCRPPRLPRPRPRPMKLPRP | -0.0356
90 | RRIRWRPPRLPRPRPRPSVCPRP | 0.104
91 | RRIRKRPPRLPRPRPRPDLCPRP | 0.741
92 | RRIRDRPPRLPRPRPRPTLHPRP | 0.605
93 | RRIRFRPPRLPRPRPRPSVIPRP | -0.339
94 | RRIRWRPPRLPRPRPRPKESPRP | 0.293
95 | RRIRARPPRLPRPRPRPMCRPRP | 0.0586
96 | RRIRCRPPRLPRPRPRPHCVPRP | -0.439
97 | RRIRQRPPRLPRPRPRPLTTPRP | 0.106
98 | RRIRKRPPRLPRPRPRPLPHPRP | -0.0107
99 | RRIRQRPPRLPRPRPRPPTQPRP | 0.0976
100 | RRIRLRPPRLPRPRPRPRDQPRP | 0.0949

Row | Sequence | shrunken log2 fold change
101 | RRIRNRPPRLPRPRPRPFIVPRP | -0.279
102 | RRIRHRPPRLPRPRPRPSGYPRP | -0.0698
103 | RRIRMRPPRLPRPRPRPFFQPRP | -0.134
104 | RRIRKRPPRLPRPRPRPKLIPRP | 0.0851
105 | RRIRRRPPRLPRPRPRPPFVPRP | 0.675
106 | RRIRARPPRLPRPRPRPTDMPRP | -0.0247
107 | RRIRPRPPRLPRPRPRPCVNPRP | -0.0713
108 | RRIRFRPPRLPRPRPRPKSWPRP | 0.199
109 | RRIRQRPPRLPRPRPRPHGTPRP | -0.0865
110 | RRIRFRPPRLPRPRPRPYFYPRP | -0.808
111 | RRIRDRPPRLPRPRPRPAECPRP | 0.232
112 | RRIRQRPPRLPRPRPRPKPPPRP | 0.27
113 | RRIRQRPPRLPRPRPRPTCIPRP | -0.0736
114 | RRIRTRPPRLPRPRPRPQIEPRP | -0.107
115 | RRIRYRPPRLPRPRPRPMVAPRP | 0.133
116 | RRIRRRPPRLPRPRPRPIIYPRP | -0.0798
117 | RRIRARPPRLPRPRPRPFFYPRP | 0.105
118 | RRIRKRPPRLPRPRPRPWDMPRP | 0.142
119 | RRIRGRPPRLPRPRPRPLVVPRP | 0.39
120 | RRIRPRPPRLPRPRPRPARPPRP | 0.626
121 | RRIRCRPPRLPRPRPRPGLWPRP | 0.569
122 | RRIRARPPRLPRPRPRPQSCPRP | -0.0161
123 | RRIRMRPPRLPRPRPRPAGQPRP | -0.00902
124 | RRIRFRPPRLPRPRPRPHSAPRP | -0.179
125 | RRIRLRPPRLPRPRPRPVCDPRP | -0.0188

Row | Sequence | shrunken log2 fold change
126 | RRIRNRPPRLPRPRPRPVPNPRP | -0.0122
127 | RRIRLRPPRLPRPRPRPRDSPRP | -0.00311
128 | RRIRFRPPRLPRPRPRPLQDPRP | 0.118
129 | RRIRFRPPRLPRPRPRPVGTPRP | 0.00754
130 | RRIRPRPPRLPRPRPRPFRPPRP | -0.0197
131 | RRIRSRPPRLPRPRPRPRIPPRP | -0.179
132 | RRIRRRPPRLPRPRPRPRGIPRP | 0.169
133 | RRIRDRPPRLPRPRPRPVDHPRP | -0.173
134 | RRIRSRPPRLPRPRPRPDGLPRP | 0.0397
135 | RRIRGRPPRLPRPRPRPHNLPRP | -0.262
136 | RRIRFRPPRLPRPRPRPGDRPRP | 0.151
137 | RRIRDRPPRLPRPRPRPYMDPRP | -0.393
138 | RRIRERPPRLPRPRPRPLPIPRP | -0.0301
139 | RRIRTRPPRLPRPRPRPNYQPRP | -0.362
140 | RRIRHRPPRLPRPRPRPQYPPRP | -0.161
141 | RRIRFRPPRLPRPRPRPKYRPRP | 0.225
142 | RRIRARPPRLPRPRPRPGSAPRP | 0.444
143 | RRIRGRPPRLPRPRPRPVHHPRP | -0.0799
144 | RRIRPRPPRLPRPRPRPYRQPRP | -0.0384
145 | RRIRPRPPRLPRPRPRPYFSPRP | -0.31
146 | RRIRWRPPRLPRPRPRPAMSPRP | 0.403
147 | RRIRFRPPRLPRPRPRPKPNPRP | 0.545
148 | RRIRWRPPRLPRPRPRPVTGPRP | 0.183
149 | RRIRGRPPRLPRPRPRPQYEPRP | 0.0238
150 | RRIRARPPRLPRPRPRPKKPPRP | 0.0922
